According to patent publication US20250179196A1 (Janssen / Centocor, published 2025):
Numbering of substitutions follows the chain as printed.

Tests used:
[1] = molecular target: T1, Recombinant human IL-23 receptor (IL-23R) extracellular domain (ECD) protein (human, UniProt Q5VWK5 24-355); assay: SPR Biacore 8K, supernatant, analysis 1
T1 construct: also called human IL-23R ECD; hu IL-23R ECD
T1 sequence: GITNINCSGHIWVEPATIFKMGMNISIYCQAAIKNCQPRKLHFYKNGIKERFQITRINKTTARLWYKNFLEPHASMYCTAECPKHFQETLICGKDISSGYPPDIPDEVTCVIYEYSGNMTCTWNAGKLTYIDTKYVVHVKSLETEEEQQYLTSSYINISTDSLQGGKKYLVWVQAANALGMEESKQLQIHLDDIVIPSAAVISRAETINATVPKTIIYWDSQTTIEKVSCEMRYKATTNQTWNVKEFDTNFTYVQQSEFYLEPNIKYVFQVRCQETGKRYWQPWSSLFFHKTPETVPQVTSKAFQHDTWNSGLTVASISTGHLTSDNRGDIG
Method: (§1) Affinity by SPR using Biacore 8K. Affinity measurements using Surface Plasmon Resonance (SPR) were performed using a Biacore 8K system (Cytiva). […] Approximately 9000-10000 RU (response units) of mAbs were immobilized. The kinetic experiments were performed at 25° C. in running buffer 1× of (HBS-P+ Buffer 10× (Cytiva #BR100671)+100 μg/ml BSA). To perform kinetic experiments, approximately 150 RU of mAbs were captured followed by injections of human IL-23R or rat IL-23R at concentrations ranging from 0.8 nM to 500 nM (in a 5-fold serial dilution). The association phase was monitored for 3 minutes at 50 μL/min, then followed by 30 minutes of buffer flow (dissociation phase). […] The collected data were processed using Biacore insight Evaluation software (Version 3.0.12.15655). The kinetic analysis of the data was performed using a Langmuir 1:1 binding model. The result for each mAb was reported in the format of Ka (On-rate), Kd (Off-rate) and KD (equilibrium dissociation constant).

[2] = molecular target: T2, rat IL-23R extracellular domain (ECD) protein (rat); assay: SPR Biacore 8K, supernatant
T2 construct: also called rat IL-23R ECD; F1LX96 amino acids 24-354
T2 chain: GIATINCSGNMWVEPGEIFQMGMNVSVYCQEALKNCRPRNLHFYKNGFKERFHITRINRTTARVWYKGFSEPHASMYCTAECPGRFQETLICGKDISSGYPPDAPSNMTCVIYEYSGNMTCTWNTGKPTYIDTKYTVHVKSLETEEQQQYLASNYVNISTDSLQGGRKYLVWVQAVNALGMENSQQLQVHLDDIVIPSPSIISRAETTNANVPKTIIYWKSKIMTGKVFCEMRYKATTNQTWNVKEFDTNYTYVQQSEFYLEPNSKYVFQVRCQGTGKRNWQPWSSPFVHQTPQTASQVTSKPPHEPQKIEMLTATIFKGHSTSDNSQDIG
Method: as §1

[3] = molecular target: T1, Recombinant human IL-23 receptor …; assay: SPR Biacore 8K, supernatant, analysis 2
Method: as §1

B1: I23RB60 (antibody, mouse IgG2a, kappa, V domains shown)
VH: DVQLQESGPELVKPGDSVKMSCEASGYTFTDYYIDWVKQSHGKSLEWIGYIYPNNGGISFNQKFEGKATLTVDKSSSTAYMELHSLTSEDSAVYYCAREKLRGRDYWGQGTTLTVSS
VL: DIVMTQSTSSLSASLGDRVTISCRASQDIRNNLNWYQQKPDGTVKLLIFYSSRLHSGVPSRFSGSGSGTDYSLTISNLEQEDIATYFCQQGHTLPWTFGAGTKLELKR
notes: mouse immunization; mouse IgG2a/kappa
[1]
  Kd: 0.731 nM
  koff: 0.000218 s⁻¹
  kon: 298000 M⁻¹ s⁻¹
[2]
  binding result: no binding (tested: 500 nM)
[3]
  Kd: 0.466 nM
  koff: 0.000169 s⁻¹
  kon: 362000 M⁻¹ s⁻¹

B2: I23RB77 (antibody, mouse IgG2a, kappa, V domains shown)
VH: DVQLQESGPGLVAPSQSLSITCTVSGFSLSRYSVHWVRQPPGKGLEWLGMIWGSGSTDYNSALKSRLSINKDNSKSQVFLKMNSLQTDDTAMYYCARVYYGGSPYAMDYWGQGTTVTVSS
VL: DIVMTQSPASLALSLGQRATISCRASESVDSYGNSFMHWYQQKPGQPPKLLIYLASNLESGVPARFSGSGSRTDFTLTIDPVEADDAAIYYCQQNNEEPNTFGAGTKLEMKR
notes: as for B1
[1]
  Kd: 1.54 nM
  koff: 0.00214 s⁻¹
  kon: 1.39e+06 M⁻¹ s⁻¹
[2]
  binding result: no binding (tested: 500 nM)
[3]
  Kd: 18 nM
  koff: 0.01 s⁻¹
  kon: 556000 M⁻¹ s⁻¹

B3: I23RB58 (antibody, mouse IgG2a, kappa, V domains shown)
VH: EVKLVESGGGLVKPGGSLKLSCAASGFSFIIYTMSWVRQTPEKRLEWVAYITSGGGITYYPDSVKGRFTISRDNARNTLYLQMSSLRSEDTAMYYCARHEGDYYDDYYRIGYAMDYWGQGTSVTVSS
VL: B2 VL with S7T, L13V, L54R, V62I, D80N, A87V, I89T, N95S, E98D, N100L
notes: as for B1
[1]
  Kd: 16.2 nM
  koff: 0.00532 s⁻¹
  kon: 328000 M⁻¹ s⁻¹
[2]
  binding result: no binding (tested: 500 nM)
[3]
  Kd: 22.5 nM
  koff: 0.00523 s⁻¹
  kon: 233000 M⁻¹ s⁻¹

B4: I23RB73 (antibody, mouse IgG2a, kappa, V domains shown)
VH: EVQLQQSGAELVKPGASVKISCKASGYTFTDHAIHWVKQRPEQGLEWIGYISLGNGDIKYSEKFRGKATLTADKTSNTAYMQLNSLTSEDSAVYFCKRSRVLRWTTYWYFDVWGAGTSVTVSS
VL: DIVMTQSHKFMSTSVGDRVSITCKASQDVSTAVAWYQQKPGQSPKLLIYWASTRLTGVPDRFTGSGSGTDYTLTISSVQAEDLALYYCQQYYNTPLTFGAGTKLELKR
notes: as for B1
[1]
  Kd: 11.7 nM
  koff: 0.00378 s⁻¹
  kon: 322000 M⁻¹ s⁻¹
[2]
  binding result: no binding (tested: 500 nM)
[3]
  Kd: 13.7 nM
  koff: 0.00293 s⁻¹
  kon: 213000 M⁻¹ s⁻¹

B5: I23RB98 (antibody, mouse IgG2a, kappa, V domains shown)
VH: EFQLQQSGPELVKPGASVKMSCKASGYTFTNYYMHWVKQSHGKTIEWIGYIYPNSGDTSYNQKFKGKATLTVDKSSSTAYMELRSLTSEDSAVYTCARFGGFYDAMDYWGQGTTVTVSS
VL: DIVLTQSPAIMSASLGERVTMTCTASSSVSSSYLHWYQQKPGSSPKLWIYSTSNLASGVPARFSGSGSGTSYSLTISSMEAEDAATYYCHQYHRSPFTFGSGTKLEMKR
notes: as for B1
[1]
  Kd: 39.1 nM
  koff: 0.00294 s⁻¹
  kon: 75100 M⁻¹ s⁻¹
[2]
  binding result: no binding (tested: 500 nM)
[3]
  Kd: 25.8 nM
  koff: 0.0035 s⁻¹
  kon: 136000 M⁻¹ s⁻¹

B6: I23RB57 (antibody, mouse IgG2a, kappa, V domains shown)
VH: B5 VH with T95N, T114S
VL: B5 VL with L4M, M107I
notes: as for B1
[1]
  Kd: 29.2 nM
  koff: 0.00299 s⁻¹
  kon: 102000 M⁻¹ s⁻¹
[2]
  binding result: no binding (tested: 500 nM)
[3]
  Kd: 38.1 nM
  koff: 0.00307 s⁻¹
  kon: 80700 M⁻¹ s⁻¹

B7: I23RB83 (antibody, mouse IgG2a, kappa, V domains shown)
VH: DVQLQESGPGLVAPSQSLSITCTVSGFSLTNYDVHWVRQSPGKGLEWLGVIWSDGSTDYNAAFISRLSFSKDNSKRQVFFKMNSLQPDDTAIYYCARNNYYRYGRNPMDYWGQGTTVTVSS
VL: DIQMTQSPASQSASLGESVTITCLASQTIGSWLAWYQQKPGKSPQLLIYAATSLADGVPSRFSGSGSGTKFSFKISSLQAEDFVSYYCQQLYSSPLTFGGGTKLEIKR
notes: as for B1
[1]
  Kd: 0.366 nM
  koff: 0.000119 s⁻¹
  kon: 325000 M⁻¹ s⁻¹
[2]
  binding result: no binding (tested: 500 nM)
[3]
  Kd: 0.345 nM
  koff: 5.91e-05 s⁻¹
  kon: 172000 M⁻¹ s⁻¹

B8: I23RB82 (antibody, mouse IgG2a, kappa, V domains shown)
VH: QVQLKESGPGLVAPSQSLSITCTVSGFSLTNYALHWFRQSPGKGLEWLGVIWSDGSTDYNSPFISRLSISKDNSKSQVFFKMNSLQADDTAIYYCARSRSNYGRWYFDVWGAGTTLTVSS
VL: QIVLSQSHKFMSTSVGDRVSITCKASQDVSTAVAWYQQKPGQSPKLLIYSAFYRYTGVPDRFTGSGSGTDFTFTISSVQAEDLAVYYCQQHYSTPYTFGGGTKLEIKR
notes: as for B1
[1]
  Kd: 4.67 nM
  koff: 0.00247 s⁻¹
  kon: 529000 M⁻¹ s⁻¹
[2]
  binding result: no binding (tested: 500 nM)
[3]
  Kd: 34.4 nM
  koff: 0.0136 s⁻¹
  kon: 397000 M⁻¹ s⁻¹

B9: I23RB61 (antibody, mouse IgG2a, kappa, V domains shown)
VH: DVQLQESGAELVKPGASVKLSCKSFDYTFTSFDINWMKQRPGQGLEWIGWIFPGSGTTNYNEKFKGKATLTADKSSSTAYMHLTSLTSEDSAVYFCARRLTGTRYFDVWGTGTTLTVSS
VL: DIQMTQSHKFLSTSVGDRITITCKASQDVITAVAWYQQKSGQSPKLLIYWASTRHTGVPDRFTGSGSGTDYTLTISNVQAEDLALYYCQQHYTTPPTFGAGTKLELKR
notes: as for B1
[1]
  Kd: 22.1 nM
  koff: 0.0101 s⁻¹
  kon: 459000 M⁻¹ s⁻¹
[2]
  binding result: no binding (tested: 500 nM)
[3]
  Kd: 5.5 nM
  koff: 0.00195 s⁻¹
  kon: 355000 M⁻¹ s⁻¹

B10: I23RB267 (antibody, mouse IgG2a, kappa, V domains shown)
VH: EVQLVQSGAEVKKPGESLKISCKGSGYSFTSYWIGWVRQMPGKGLEWMGIIYPGDSDTRYSPSFQGQVTISADKSISTAYLQWSSLKASDTAMYYCARVWYSSWDLDYWGQGTLVTVSS
VL: not shown
notes: phage display; human V regions, mouse IgG2a/kappa constant regions
[1]
  Kd: 18.1 nM
  koff: 0.000196 s⁻¹
  kon: 10800 M⁻¹ s⁻¹
[2]
  binding result: no binding (tested: 500 nM)
[3]
  Kd: 7.56 nM
  koff: 0.000178 s⁻¹
  kon: 23500 M⁻¹ s⁻¹

B11: I23RB93 (antibody, mouse IgG2a, kappa, V domains shown)
VH: QVQLKESGPGLVQPSQSLSITCTVSGFSLTSYGVHWVRQSPGKGLEWLGVIWSGVSTDYNAAFISRLSISKDNSKSQVFFKMNSLQADDTAIYYCARSRGSYYFDYWGQGTTLTVSS
VL: DIKMTQSPATLSVTPGDSVSLFCRASQSISNNLHWYQQKSHESPRLLIKYASQSISGIPSRFSGSGSGTDFTLSINSVETEDFGMYFCQQSNSWPLTFGGGTKLEIKR
notes: as for B1
[1]
  Kd: 2.88 nM
  koff: 0.00138 s⁻¹
  kon: 480000 M⁻¹ s⁻¹
[2]
  binding result: no binding (tested: 500 nM)
[3]
  Kd: 2.9 nM
  koff: 0.00123 s⁻¹
  kon: 423000 M⁻¹ s⁻¹

B12: I23RB268 (antibody, mouse IgG2a, kappa, V domains shown)
VH: QVQLVQSGAEVKKPGSSVKVSCKASGGTFSSYYIHWVRQAPGQGLEWMGGIIPIFGYANYAQKFQGRVTITADESTSTAYMELSSLRSEDTAVYYCARDPGSYGSVYYRRSYYFDYWGQGTLVTVSS
VL: EIVLTQSPATLSLSPGERATLSCRASQSVSSYLAWYQQKPGQAPRLLIYDASNRATGIPARFSGSGSGTDFTLTISSLEPEDFAVYYCQQRSNWPLTFGQGTKVEIKR
notes: as for B10
[1]
  Kd: 12 nM
  koff: 0.000273 s⁻¹
  kon: 22800 M⁻¹ s⁻¹
[2]
  binding result: no binding (tested: 500 nM)
[3]
  Kd: 18.9 nM
  koff: 0.000308 s⁻¹
  kon: 16300 M⁻¹ s⁻¹

B13: I23RB86 (antibody, mouse IgG2a, kappa, V domains shown)
VH: EVQLQQSGAELVKPGASVKLSCKASGYTFTSYWLHWVKQRPGQGLEWIGEIDPSDSYTYYNQKFKGKATLTVDKSSSTAYMQLSSLTSEDSAVYYCARSPYDYDWGAYWGQGTSVTVSS
VL: DIVMTQSPSSMSVSLGDTVSITCHASQGISSNIGWLQQKPGKSFKGLIYHGTNLEDEVPSRFSGSGSGADYSLTIGSLESEDFADYYCVQYAQFPWTFGAGTKLEMKR
notes: as for B1
[1]
  Kd: 8.06 nM
  koff: 0.000587 s⁻¹
  kon: 72800 M⁻¹ s⁻¹
[2]
  binding result: no binding (tested: 500 nM)
[3]
  Kd: 8.14 nM
  koff: 0.000572 s⁻¹
  kon: 70300 M⁻¹ s⁻¹
